Biological target: T1, 重组人IL-1β (novoprotein, CG93) (human, UniProt P01584 117-269)
T1 construct: The supplier is stated for the immunogen; also called rHuman IL-1β; hIL-1β
Assay: Biacore SPR, antibody captured on Protein A chip, IL-1β as analyte, 1:1 Langmuir fit

B1: 阳性对照抗体CAN (卡纳单抗, Canakinumab) (antibody, human IgG1, kappa, V domains shown)
VH: QVQLVESGGGVVQPGRSLRLSCAASGFTFSVYGMNWVRQAPGKGLEWVAIIWYDGDNQYYADSVKGRFTISRDNSKNTLYLQMNGLRAEDTAVYYCARDLRTGPFDYWGQGTLVTVSS
VL: EIVLTQSPDFQSVTPKEKVTITCRASQSIGSSLHWYQQKPDQSPKLLIKYASQSFSGVPSRFSGSGSGTDFTLTINSLEAEDAAAYYCHQSSSLPFTFGPGTKVDIKR
notes: Signal peptide added for expression is left out; also called Ilaris
**Q.** For B1, which Kd is on record?
**A.** Its Kd is 0.0153 nM.

**Q.** What about the koff of the same binder?
**A.** The koff was 6.01e-05 s⁻¹.

**Q.** And the kon?
**A.** Its kon is 3.93e+06 M⁻¹ s⁻¹.

Source: CN115028723A (dated 2022)
